Read-outs that look alike come from different tables or passages of the source.
T1: biotinylated human α-synuclein peptide 120-140 (human, biotinylated (site not stated))
T1 construct: also called α-synuclein fragment 120-140
T1 peptide: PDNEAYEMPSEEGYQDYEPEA


Columns and labels:
[1] = molecular target: pHAb-dye labelled human α-synuclein fibrils (1-140) (human, UniProt P37840 1-140); test: cell-based or functional assay
[2] = molecular target: T2, recombinant human α-synuclein fibril (human, UniProt P37840 1-140); test: ELISA, plate coated with fibril at 1 µg/ml
Protocol: An Enzyme-Linked Immunosorbent Assay (ELISA) is performed for quantitative determination of antibody affinity to recombinant human α-synuclein fibril.
(§1) An ELISA plate is coated with recombinant human α-synuclein fibril at 1 μg/ml in PBS overnight at 4° C. The next day, the plate is incubated with 1% casein for 1 hour at room temperature to block non-specific binding sites on the plate. […] After incubation, the plate is washed three times with 0.1% PBST to remove un-bound antibody and incubated with a detection agent (1:1000 diluted goat-anti-human Kappa-AP) in 0.1% PBST for 1 hour at room temperature. The plate is washed three times with 0.1% PBST to remove un-bound detection agent and incubated with a substrate for 15 minutes at room temperature. The OD is then read in an ELISA plate reader at 560 nm. The binding curve is obtained based on the antibody concentration and OD560 readout.

[3] = molecular target: T3, mIgG1-hAsyn100-140 (mouse; human, UniProt P37840 100-140); test: MSD-SET solution equilibrium at 37 C
T3 construct: C-terminal fragment of human α-synuclein fused onto the C-terminal end of a mouse Fc; also called dimeric human alpha-synuclein; dimeric α-synuclein; not shown: mouse IgG1 Fc fragment; short unstructured linker element

[4] = molecular target: T3, mIgG1-hAsyn100-140; test: ratio of Kinexa KD for monomeric human α-synuclein to MSD-SET KD for dimeric α-synuclein, 37 C
Protocol: During this time, sepharose beads are conjugated with monomeric human alpha-synuclein and blocked with a suitable non-specific binding protein (typically BSA or casein). Once steady state is achieved, a small capillary is packed with coated beads and samples of each fixed antibody/alpha-synuclein monomer are injected over the column. […] This step is repeated for each concentration of alpha-synuclein monomer and resultant fluorescent signal (proportional to percent free antibody) and then plotted as a function of fluorescent signal versus monomeric α-synuclein concentration and globally fit to a 1:1 binding model to obtain KD. Independent runs (n=3) run with technical duplicates (95% confidence intervals) are reported.
During this incubation time, an MSD Sector plate is coated with monomeric human alpha-synuclein and blocked with a blocking reagent (i.e. BSA, casein). Following steady state equilibrium incubation times, individual antibody/mIgG1-hAsyn 100-140 mixtures are added simultaneously to the plate and allowed to incubate for 10 minutes to capture free antibody and minimize exchange with antibody in complex with mIgG1-hAsyn100-140. Following this short incubation, plates are subsequently washed and incubated with a biotinylated anti-human secondary antibody, followed by detection using streptavidin-S-tag on the MSD instrument. […]

[5] = molecular target: T2, recombinant human α-synuclein fibril; test: cell-based or functional assay
[6] = molecular target: T1, biotinylated human α-synuclein peptide …; test: ELISA on biotinylated human alpha-synuclein peptide 120-140, detection with goat anti-human kappa-AP, OD560
Protocol: as §1
(§2) Binding full-length (1-140) α-synuclein is also determined. The procedure is essentially as described above for α-synuclein fibril binding.

[7] = molecular target: T3, mIgG1-hAsyn100-140; test: MSD-SET solution equilibrium at 25 C
Protocol: During this incubation time, an MSD Sector plate is coated with monomeric human alpha-synuclein and blocked with a blocking reagent (i.e. BSA, casein). Following steady state equilibrium incubation times, individual antibody/mIgG1-hAsyn 100-140 mixtures are added simultaneously to the plate and allowed to incubate for 10 minutes to capture free antibody and minimize exchange with antibody in complex with mIgG1-hAsyn100-140. Following this short incubation, plates are subsequently washed and incubated with a biotinylated anti-human secondary antibody, followed by detection using streptavidin-S-tag on the MSD instrument. The resultant MSD signal (proportional to % free antibody) is then plotted as a function of mIgG1-hAsyn100-140 concentration and globally fit to a four parameter fit to obtain IC₅₀ (KD). Reported 95% confidence intervals represent the fitting of N=3 independent runs each with technical duplicates. The avidity-factor is the ratiometric difference between monomer affinity and dimer affinity and represents the selectivity in binding between monomeric and dimeric α-synuclein for antibody.

[8] = molecular target: T4, monomeric human α-synuclein (human, UniProt P37840 1-140); test: ELISA on plate-coated full-length (1-140) human alpha-synuclein, detection with goat anti-human kappa-AP, OD560
Protocol: as §1, §2

[9] = molecular target: monomeric mouse alpha-synuclein (mouse, UniProt O55042 1-140); test: Kinexa at 37 C, solution equilibrium
Protocol: (§3) These samples are incubated for 24 to 48 hours at 37 C to allow for steady state equilibrium to be achieved. During this time, sepharose beads are conjugated with monomeric human alpha-synuclein and blocked with a suitable non-specific binding protein (typically BSA or casein). Once steady state is achieved, a small capillary is packed with coated beads and samples of each fixed antibody/alpha-synuclein monomer are injected over the column. […] This step is repeated for each concentration of alpha-synuclein monomer and resultant fluorescent signal (proportional to percent free antibody) and then plotted as a function of fluorescent signal versus monomeric α-synuclein concentration and globally fit to a 1:1 binding model to obtain KD. Independent runs (n=3) run with technical duplicates (95% confidence intervals) are reported.

[10] = molecular target: monomeric rat alpha-synuclein (rat, UniProt P37377 1-140); test: Kinexa at 37 C, solution equilibrium
Protocol: as §3

[11] = molecular target: T4, monomeric human α-synuclein; test: Kinexa at 37 C, solution equilibrium
Protocol: as §3

[12] = molecular target: monomeric rabbit alpha-synuclein (rabbit); test: Kinexa at 37 C, solution equilibrium
Protocol: as §3

[13] = molecular target: monomeric human alpha-synuclein fragment 1-115 (human, UniProt P37840 1-115); test: Kinexa at 37 C, solution equilibrium
Protocol: as §3

[14] = molecular target: T4, monomeric human α-synuclein; test: Kinexa at 37 C, solution equilibrium; remark: listed apart in the source
Protocol: as §3

[15] = molecular target: monomeric human alpha-synuclein fragment 1-121 (human, UniProt P37840 1-121); test: Kinexa at 37 C, solution equilibrium
Protocol: as §3

[16] = molecular target: truncated human α-synuclein fragment 1-120 (human, UniProt P37840 1-120); test: ELISA on plate-coated truncated human alpha-synuclein fragment 1-120, detection with goat anti-human kappa-AP, OD560
Protocol: as §1, §2

Average IC50, inhibition of fibril internalization into SH-SY5Y cells [1] [µg/mL]	IC50 Standard Deviation, inhibition of fibril internalization into SH-SY5Y cells [1] [µg/mL]	EC50 [2] [µg/mL]	Kd [3] [nM]	avidity factor (monomer KD against dimer KD) [4] [fold]	Average IC50, inhibition of alpha-synuclein aggregation in SHSY-5Y-A53T-myc cells [5] [µg/mL]	EC50 (read off the curve) [6] [nM]	Kd [7] [nM]	EC50 (read off the curve) [8] [nM]	Kd [9] [nM]	Kd [10] [nM]	Kd [11] [nM]	Kd [12] [nM]	Kd [13] [nM]	Kd [14] [nM]	Kd [15] [nM]	EC50 (read off the curve) [16] [nM]	Binder
0.45	0.017	0.000193	0.00097	~20000	0.41	~0.9	0.00012	~1	49.7	89	19	554	675	19	11.8	~0.7	Antibody 1 (antibody, human IgG4 S228P, kappa, F234A L235A, V domains shown, about 1% of the N-terminal glutamic acid may be converted to pyroglutamic acid; less than about 1% of the C-terminal glycine may be clipped, IgG4PAA, kappa) VH: EVQLLESGGGLVQPGGSLRLSCAASGFTFSSYAMSWVRQAPGKGLEWVSAISGSGGDTYYADSVKGRFTISRDNSKNTLYLQMNSLRAEDTAVYYCARGYGMDVWGQGTTVTVSS VL: DVVMTQSPLSLPVTLGQPASISCRSSQSLVHSDGNTYLMWFQQRPGQSPRRLIYKVSNRNSGVPDRFSGSGSGTDFTLKISRVEAEDVGVYYCMQGTKQYPTFGQGTKLEIKR
0.56	0.026	0.000161	–	–	0.4	~5	0.0032	~0.8	99.3	140	65.6	1020	–	–	–	~0.6	Antibody 2 (antibody, human IgG4 S228P, kappa, F234A L235A, V domains shown, about 1% of the N-terminal glutamic acid may be converted to pyroglutamic acid; less than about 1% of the C-terminal glycine may be clipped, IgG4PAA, kappa) VH: EVQLLESGGGLVQPGGSLRLSCAASGFTFSSYAMSWVRQAPGKGLEWVSAISGSGGDTYYADSVQGRFTISRDNSKNTLYLQMNSLRAEDTAVYYCARGYGMDVWGQGTTVTVSS VL: DVVMTQSPLSLPVTLGQPASISCRSSQDLVHSDGNTYLMWFQQRPGQSPRRLIYKVSDRNSGVPDRFSGSGSGTDFTLKISRVEAEDVGVYYCMQGTKQYPTFGQGTKLEIKR
